Among the data in publication PMC3226441, “Generation of recombinant single-chain antibodies neutralizing the cytolytic activity of vaginolysin, the main virulence factor of Gardnerella vaginalis” (BMC Biotechnology, 2011) are Kd and other values, retold here.

In experiment [1] the target is T1, vaginolysin (VLY), recombinant (Gardnerella vaginalis).
T1 construct: also called recombinant VLY
In words: ELISA; indirect ELISA; recombinant purified VLY (5 μg/ml, 50 mM Na-carbonate pH 9.5) coated on MaxiSorp plates; scFv 50 μg/ml to 20 ng/ml, 1 h at RT; detected by anti-His5 MAb and HRP-labelled anti-mouse IgG; apparent Kd = molar concentration at the mid-point of the titration curve. The settings on record: both partners purified. In general terms: In an ELISA, binding on a coated surface is turned into a signal by an enzyme label.

For experiment [2], the target named is T1, vaginolysin (VLY), recombinant. In words: cell-based or functional assay.

B1: anti-VLY scFv 9B4 (VL-VH) (scFv, V domains shown)
VH: QVQLEQSGPGLVAPSESLTITCTVSGFSLNSYGVHWVRQPPGKGLEWVGVMWAGGNTSYNSALMSRLSISKDNSKSQVFLKMNSLQTDDTAIYYCARARGAMDYWGQGTSVTVSS
VL: DIVMTQTTSHLSVSLGDRVTIACKASAHINNWLAWYQQKPGNAPSLLIAGATGLETGVPSRFSGSGSGKDFTLSISSLQTEDVATYYCQQYWDTPYTFGGGTKLEIR
notes: also called 9B4-derived scFv (variant VL-VH); source: E. coli BL21(DE3), from inclusion bodies, renatured, purified (Ni-NTA); not shown: His6, N-terminal, kept
As for B1, the Kd in experiment [1] is 11 nM. In experiment [2], the other worked out at 37 nM.

B2: anti-VLY scFv 9B4 (VH-VL) (scFv, V domains shown)
VH: QVQLEQSGPGLVAPSESLTITCTVSGFSLNSYGVHWVRQPPGKGLEWVGVMWAGGNTSYNSALMSRLSISKDNSKSQVFLKMNSLQTDDTAIYYCARARGAMDYWGQGTSVTVSS
VL: DIVMTQTTSHLSVSLGDRVTIACKASAHINNWLAWYQQKPGNAPSLLIAGATGLETGVPSRFSGSGSGKDFTLSISSLQTEDVATYYCQQYWDTPYTFGGGTKLEIR
notes: also called 9B4-derived scFv (variant VH-VL); source: E. coli BL21(DE3), from inclusion bodies, renatured, purified (Ni-NTA); not shown: His6, N-terminal, kept
On to B2, for which the Kd in experiment [1] amounted to 15 nM. Also, the other in experiment [2] came out at 51 nM.

B3: anti-VLY scFv 23A2 (VL-VH) (scFv, V domains shown)
VH: QVQLEQSGAELVRSGASVKISCKASGYTFPSYNMHWVKQTPGQGLEWIGYIYPGNGVTNYNQKFKGKATLTADTSSSTAYMQISSLTSEDSAVYFCAREEGGNLLWGHFAMDYWGQGTSVTVSS
VL: DIVMTQTTLSLPVSLGDQASISCRSSQSLVHSNGNTYLHWYLQKPGQSPKLLIYKVSNRFSGVPDRFSGSGSGTDFTLKISRVEAEDLGVYFCSQSTHVPPTFGGGTKLEIR
notes: also called 23A2-derived scFv (variant VL-VH); source: E. coli BL21(DE3), from inclusion bodies, renatured, purified (Ni-NTA); not shown: His6, N-terminal, kept
With B3, in experiment [1], the Kd turned out to be 92 nM. Also, the other in experiment [2] came to 110 nM.

B4: anti-VLY scFv 23A2 (VH-VL) (scFv, V domains shown)
VH: QVQLEQSGAELVRSGASVKISCKASGYTFPSYNMHWVKQTPGQGLEWIGYIYPGNGVTNYNQKFKGKATLTADTSSSTAYMQISSLTSEDSAVYFCAREEGGNLLWGHFAMDYWGQGTSVTVSS
VL: DIVMTQTTLSLPVSLGDQASISCRSSQSLVHSNGNTYLHWYLQKPGQSPKLLIYKVSNRFSGVPDRFSGSGSGTDFTLKISRVEAEDLGVYFCSQSTHVPPTFGGGTKLEIR
notes: also called 23A2-derived scFv (variant VH-VL); source: E. coli BL21(DE3), from inclusion bodies, renatured, purified (Ni-NTA); not shown: His6, N-terminal, kept
On to B4, for which the Kd in experiment [1] came out at 98 nM. The other in experiment [2] was found to be 150 nM.
